The values below come from publication PMC7020226, “Enzymatic Properties of Recombinant Phospho-Mimetic Photorespiratory Glycolate Oxidases from Arabidopsis thaliana and Zea mays” (Plants, 2019).

Residue numbers refer to the chain shown, from its start. Names may count otherwise.

First the molecules themselves.
B1: AtGOX1 (Arabidopsis thaliana) (protein)
chain: MEITNVTEYDAIAKQKLPKMVYDYYASGAEDQWTLQENRNAFARILFRPRILIDVSKIDMTTTVLGFKISMPIMVAPTAMQKMAHPDGEYATARAASAAGTIMTLSSWATSSVEEVASTGPGIRFFQLYVYKNRNVVEQLVRRAERAGFKAIALTVDTPRLGRRESDIKNRFTLPPNLTLKNFEGLDLGKMDEANDSGLASYVAGQIDRTLSWKDVQWLQTITKLPILVKGVLTGEDARIAIQAGAAGIIVSNHGARQLDYVPATISALEEVVKATQGRIPVFLDGGVRRGTDVFKALALGASGIFIGRPVVFSLAAEGEAGVRKVLQMLRDEFELTMALSGCRSLKEISRNHITTEWDTPRPSARL
notes: full length (367 residues), N-terminal His-tag, pET28a, expressed in Escherichia coli
B2: AtGOX2 (Arabidopsis thaliana) (protein)
chain: MEITNVTEYDAIAKAKLPKMVYDYYASGAEDQWTLQENRNAFARILFRPRILIDVNKIDMATTVLGFKISMPIMVAPTAFQKMAHPDGEYATARAASAAGTIMTLSSWATSSVEEVASTGPGIRFFQLYVYKNRKVVEQLVRRAEKAGFKAIALTVDTPRLGRRESDIKNRFTLPPNLTLKNFEGLDLGKMDEANDSGLASYVAGQIDRTLSWKDIQWLQTITNMPILVKGVLTGEDARIAIQAGAAGIIVSNHGARQLDYVPATISALEEVVKATQGRVPVFLDGGVRRGTDVFKALALGASGIFIGRPVVFALAAEGEAGVKKVLQMLRDEFELTMALSGCRSLSEITRNHIVTEWDTPRHLPRL
notes: full length, N-terminal His-tag, pET28a, expressed in Escherichia coli
B3: ZmGO1 (Zea mays) (protein)
chain: MGEITNVMEYQAIAKQKLPKMAYDYYASGAEDEWTLQENREAFSRILFRPRILIDVSKIDMTTTVLGFKISMPIMVAPTAMQKMAHPDGEYATARAAAAAGTIMTLSSWATSSVEEVASTGPGIRFFQLYVYKDRKVVEQLVRRAERAGFKAIALTVDTPRLGRREADIKNRFVLPPHLTLKNFEGLDLGKMDQAADSGLASYVAGQVDRTLSWKDVKWLQTITTLPILVKGVLTAEDTRLAVANGAAGIIVSNHGARQLDYVPATISALEEVVKAARGQLPVFVDGGVRRGTDVFKALALGAAGVFVGRPVVFSLAAAGEAGVSNVLRMLRDEFELTMALSGCTSLAEITRKHIITESDKLSAIPSRL
notes: as for B2
B4: AtGOX1 (Arabidopsis thaliana; T265D) (protein)
chain: B1 chain with T265D
B5: AtGOX1 (Arabidopsis thaliana; T158V) (protein)
chain: B1 chain with T158V
B6: AtGOX1 (Arabidopsis thaliana; T4D) (protein)
chain: B1 chain with T4D
B7: AtGOX2 (Arabidopsis thaliana; T265D) (protein)
chain: B2 chain with T265D
B8: AtGOX2 (Arabidopsis thaliana; T158V) (protein)
chain: B2 chain with T158V
B9: AtGOX2 (Arabidopsis thaliana; T4D) (protein)
chain: B2 chain with T4D
B10: ZmGO1 (Zea mays; T159V) (protein)
chain: B3 chain with T159V
notes: as for B2

Substrate in one series: CCCCCCC(O)C(=O)O
The series can be described thus: H2O2 detection, horseradish peroxidase / o-dianisidine coupled assay. It counts as biochemical, Arabidopsis thaliana. As to conditions: 50 mM Tris-HCl pH 8.0, 0.1 mM FMN, 30 °C.
Take B1: the Km is on record as 757 ± 82 µM and the turnover number (kcat) stood at 5.95 ± 0.58 s⁻¹.

Regarding B2, the Km came out at 487 ± 99 µM and the catalytic constant (kcat) was 3.78 ± 1.26 s⁻¹.

Substrate in the next series: C[C@H](O)C(=O)O
As to the kind of experiment: purified protein. As to conditions: 50 mM Tris-HCl pH 8.0, 0.1 mM FMN, 30 °C.
In the case of B1, the Km is 1664 ± 293 µM and the turnover number (kcat) came out at 9.09 s⁻¹.

For the protein B3, the Km is given as 495 ± 75 µM and the kcat worked out at 10.8 s⁻¹.

With B2, the Michaelis-Menten constant (Km) is listed as 2094 ± 791 µM and the kcat worked out at 6.81 s⁻¹.

Substrate in another series: O=C(O)CO
The series can be described thus: purified protein. The conditions noted are these: 50 mM Tris-HCl pH 8.0, 0.1 mM FMN, 30 °C.
Turning to B4, the Michaelis constant (Km) is 531 ± 50 µM and the kcat worked out at 0.14 ± 0.06 s⁻¹.

Regarding B1, the Km amounted to 210 ± 90 µM and the catalytic constant (kcat) came to 11.12 ± 3.08 s⁻¹.

As for B5, the Km is on record as 100 ± 19 µM and the kcat was 2.36 ± 0.47 s⁻¹.

Take B6: the Km is on record as 151 ± 44 µM and the kcat worked out at 0.61 ± 0.46 s⁻¹.

On to B7, for which the Km was found to be 388 ± 159 µM and the turnover number (kcat) was found to be 2.06 ± 1.09 s⁻¹.

Turning to B8, the Michaelis constant (Km) was found to be 133 ± 83 µM and the kcat was found to be 2.49 ± 0.60 s⁻¹.

As for B9, the Km came to 390 ± 215 µM and the kcat was 1.40 ± 0.42 s⁻¹.

For B2, the Km was determined as 279 ± 30 µM and the kcat was 10.93 ± 3.48 s⁻¹.

Substrate in the next series: CCCCCCC(O)C(=O)O
The series can be described thus: H2O2 detection, horseradish peroxidase / o-dianisidine coupled assay. It counts as biochemical, Zea mays. The conditions noted are these: 50 mM Tris-HCl pH 8.0, 0.1 mM FMN, 30 °C. This is another data set of the same source.
Description: H2O2 detection, horseradish peroxidase / o-dianisidine coupled assay on ZmGO1
For B3, the Km was found to be 136 ± 19 µM and the kcat came out at 5.89 ± 0.14 s⁻¹.

Still in this series, the particulars now being: 50 mM Tris-HCl pH 8.0, 0.1 mM FMN, 30 °C, printed as T158V in Table 3.
Regarding B10, the Km was found to be 48 ± 36 µM and the kcat came out at 3.22 ± 0.39 s⁻¹.

By Km is commonly meant the concentration of substrate that gives half-maximal velocity. For orientation: kcat means the maximal rate divided by the concentration of active sites.
